{"source": "the supplement of paper PMC11316812", "key": {"hTERT-HMEC": {"test_system": "hTERT-HMEC", "assay": "percentage of EdU-negative (G0-arrested) nuclei per well, 72 h; higher = more G0 arrest", "conditions": "reference: sequence is the full UniProt precursor, the tested protein was the secreted form or ectodomain"}, "MCF7": {"test_system": "MCF7", "assay": "percentage of EdU-negative (G0-arrested) nuclei per well, 72 h; higher = more G0 arrest", "conditions": "reference: sequence is the full UniProt precursor, the tested protein was the secreted form or ectodomain"}, "[1]": {"conditions": "protein concentration 0.0105714 µM"}, "[2]": {"conditions": "protein concentration 0.105714 µM"}, "[3]": {"conditions": "protein concentration 0.0111425 µM"}, "[4]": {"conditions": "protein concentration 0.111425 µM"}, "[5]": {"conditions": "protein concentration 0.03125 µM"}, "[6]": {"conditions": "protein concentration 0.3125 µM"}, "[7]": {"conditions": "protein concentration 0.00875 µM"}, "[8]": {"conditions": "protein concentration 0.0875 µM"}, "[9]": {"conditions": "protein concentration 0.0225 µM"}}, "note": "± gives the standard deviation of the averaged measurements.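 Also: secreted proteins added to cultured cells, EdU pulse at the end, nuclei found by Hoechst imaging, EdU status from nuclear versus surrounding ring intensity ratio, PBS as neutral control.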"}
{"sequence": "MVLLRVLILLLSWAAGMGGQYGNPLNKYIRHYEGLSYNVDSLHQKHQRAKRAVSHEDQFLRLDFHAHGRHFNLRMKRDTSLFSDEFKVETSNKVLDYDTSHIYTGHIYGEEGSFSHGSVIDGRFEGFIQTRGGTFYVEPAERYIKDRTLPFHSVIYHEDDINYPHKYGPQGGCADHSVFERMRKYQMTGVEEVTQIPQEEHAANGPELLRKKRTTSAEKNTCQLYIQTDHLFFKYYGTREAVIAQISSHVKAIDTIYQTTDFSGIRNISFMVKRIRINTTADEKDPTNPFRFPNIGVEKFLELNSEQNHDDYCLAYVFTDRDFDDGVLGLAWVGAPSGSSGGICEKSKLYSDGKKKSLNTGIITVQNYGSHVPPKVSHITFAHEVGHNFGSPHDSGTECTPGESKNLGQKENGNYIMYARATSGDKLNNNKFSLCSIRNISQVLEKKRNNCFVESGQPICGNGMVEQGEECDCGYSDQCKDECCFDANQPEGRKCKLKPGKQCSPSQGPCCTAQCAFKSKSEKCRDDSDCAREGICNGFTALCPASDPKPNFTDCNRHTQVCINGQCAGSICEKYGLEECTCASSDGKDDKELCHVCCMKKMDPSTCASTGSVQWSRHFSGRTITLQPGSPCNDFRGYCDVFMRCRLVDADGPLARLKKAIFSPELYENIAEWIVAHWWAVLLMGIALIMLMAGFIKICSVHTPSSNPKLPPPKPLPGTLKRRRPPQPIQQPQRQRPRESYQMGHMRR", "values": [{"measurement": "percentage of EdU-negative", "setting": "hTERT-HMEC; [1]", "value": "6.02 ± 1.1", "unit": "%"}, {"measurement": "percentage of EdU-negative", "setting": "hTERT-HMEC; [2]", "value": "6.36 ± 1.3", "unit": "%"}, {"measurement": "percentage of EdU-negative", "setting": "MCF7; [1]", "value": "24.8 ± 1.8", "unit": "%"}, {"measurement": "percentage of EdU-negative", "setting": "MCF7; [2]", "value": "26.2 ± 1.3", "unit": "%"}]}
{"sequence": "MVLLWEPAGAWLALGLALALGPSVAAAAPRQDCTGVECPPLENCIEEALEPGACCATCVQQGCACEGYQYYDCLQGGFVRGRVPAGQSYFVDFGSTECSCPPGGGKISCQFMLCPELPPNCIEAVVVADSCPQCGQVGCVHAGHKYAAGHTVHLPPCRACHCPDAGGELICYQLPGCHGNFSDAEEGDPERHYEDPYSYDQEVAEVEAATALGGEVQAGAVQAGAGGPPAALGGGSQPLSTIQAPPWPAVLPRPTAAAALGPPAPVQAKARRVTEDSEEEEEEEEEREEMAVTEQLAAGGHRGLDGLPTTAPAGPSLPIQEERAEAGARAEAGARPEENLILDAQATSRSTGPEGVTHAPSLGKAALVPTQAVPGSPRDPVKPSPHNILSTSLPDAAWIPPTREVPRKPQVLPHSHVEEDTDPNSVHSIPRSSPEGSTKDLIETCCAAGQQWAIDNDECLEIPESGTEDNVCRTAQRHCCVSYLQEKSCMAGVLGAKEGETCGAEDNDSCGISLYKQCCDCCGLGLRVRAEGQSCESNPNLGYPCNHVMLSCCEGEEPLIVPEVRRPPEPAAAPRRVSEAEMAGREALSLGTEAELPNSLPGDDQDECLLLPGELCQHLCINTVGSYHCACFPGFSLQDDGRTCRPEGHPPQPEAPQEPALKSEFSQVASNTIPLPLPQPNTCKDNGPCKQVCSTVGGSAICSCFPGYAIMADGVSCEDINECVTDLHTCSRGEHCVNTLGSFHCYKALTCEPGYALKDGECEDVDECAMGTHTCQPGFLCQNTKGSFYCQARQRCMDGFLQDPEGNCVDINECTSLSEPCRPGFSCINTVGSYTCQRNPLICARGYHASDDGTKCVDVNECETGVHRCGEGQVCHNLPGSYRCDCKAGFQRDAFGRGCIDVNECWASPGRLCQHTCENTLGSYRCSCASGFLLAADGKRCEDVNECEAQRCSQECANIYGSYQCYCRQGYQLAEDGHTCTDIDECAQGAGILCTFRCLNVPGSYQCACPEQGYTMTANGRSCKDVDECALGTHNCSEAETCHNIQGSFRCLRFECPPNYVQVSKTKCERTTCHDFLECQNSPARITHYQLNFQTGLLVPAHIFRIGPAPAFTGDTIALNIIKGNEEGYFGTRRLNAYTGVVYLQRAVLEPRDFALDVEMKLWRQGSVTTFLAKMHIFFTTFAL", "values": [{"measurement": "percentage of EdU-negative", "setting": "hTERT-HMEC; [3]", "value": "5.72 ± 0.17", "unit": "%"}, {"measurement": "percentage of EdU-negative", "setting": "hTERT-HMEC; [4]", "value": "6.99 ± 0.78", "unit": "%"}, {"measurement": "percentage of EdU-negative", "setting": "MCF7; [3]", "value": "23.7 ± 1.3", "unit": "%"}, {"measurement": "percentage of EdU-negative", "setting": "MCF7; [4]", "value": "25.1 ± 2.6", "unit": "%"}]}
{"sequence": "MVLLWLTLLLIALPCLLQTKEDPNPPITNLRMKAKAQQLTWDLNRNVTDIECVKDADYSMPAVNNSYCQFGAISLCEVTNYTVRVANPPFSTWILFPENSGKPWAGAENLTCWIHDVDFLSCSWAVGPGAPADVQYDLYLNVANRRQQYECLHYKTDAQGTRIGCRFDDISRLSSGSQSSHILVRGRSAAFGIPCTDKFVVFSQIEILTPPNMTAKCNKTHSFMHWKMRSHFNRKFRYELQIQKRMQPVITEQVRDRTSFQLLNPGTYTVQIRARERVYEFLSAWSTPQRFECDQEEGANTRAWRTSLLIALGTLLALVCVFVICRRYLVMQRLFPRIPHMKDPIGDSFQNDKLVVWEAGKAGLEECLVTEVQVVQKT", "values": [{"measurement": "percentage of EdU-negative", "setting": "hTERT-HMEC; [5]", "value": "4.403 ± 0.019", "unit": "%"}, {"measurement": "percentage of EdU-negative", "setting": "hTERT-HMEC; [6]", "value": "5.4 ± 0.13", "unit": "%"}, {"measurement": "percentage of EdU-negative", "setting": "MCF7; [5]", "value": "26.3 ± 2.9", "unit": "%"}, {"measurement": "percentage of EdU-negative", "setting": "MCF7; [6]", "value": "30.4 ± 0.99", "unit": "%"}]}
{"sequence": "MVLWESPRQCSSWTLCEGFCWLLLLPVMLLIVARPVKLAAFPTSLSDCQTPTGWNCSGYDDRENDLFLCDTNTCKFDGECLRIGDTVTCVCQFKCNNDYVPVCGSNGESYQNECYLRQAACKQQSEILVVSEGSCATDAGSGSGDGVHEGSGETSQKETSTCDICQFGAECDEDAEDVWCVCNIDCSQTNFNPLCASDGKSYDNACQIKEASCQKQEKIEVMSLGRCQDNTTTTTKSEDGHYARTDYAENANKLEESAREHHIPCPEHYNGFCMHGKCEHSINMQEPSCRCDAGYTGQHCEKKDYSVLYVVPGPVRFQYVLIAAVIGTIQIAVICVVVLCITRKCPRSNRIHRQKQNTGHYSSDNTTRASTRLI [Q9UIK5]", "values": [{"measurement": "percentage of EdU-negative", "setting": "hTERT-HMEC; [7]", "value": "5.34 ± 0.33", "unit": "%"}, {"measurement": "percentage of EdU-negative", "setting": "hTERT-HMEC; [8]", "value": "11.1 ± 2.2", "unit": "%"}, {"measurement": "percentage of EdU-negative", "setting": "MCF7; [7]", "value": "23.6 ± 4.7", "unit": "%"}, {"measurement": "percentage of EdU-negative", "setting": "MCF7; [8]", "value": "28.2 ± 2", "unit": "%"}]}
{"sequence": "MVMLLLLLSALAGLFGAAEGQAFHLGKCPNPPVQENFDVNKYLGRWYEIEKIPTTFENGRCIQANYSLMENGKIKVLNQELRADGTVNQIEGEATPVNLTEPAKLEVKFSWFMPSAPYWILATDYENYALVYSCTCIIQLFHVDFAWILARNPNLPPETVDSLKNILTSNNIDVKKMTVTDQVNCPKLS", "values": [{"measurement": "percentage of EdU-negative", "setting": "hTERT-HMEC; [9]", "value": "4.945 ± 0.022", "unit": "%"}, {"measurement": "percentage of EdU-negative", "setting": "hTERT-HMEC; protein concentration 0.225 µM", "value": "4.745 ± 0.02", "unit": "%"}, {"measurement": "percentage of EdU-negative", "setting": "MCF7; [9]", "value": "24.66 ± 0.099", "unit": "%"}, {"measurement": "percentage of EdU-negative", "setting": "MCF7; protein concentration 0.225 µM", "value": "25.9 ± 3", "unit": "%"}]}
{"sequence": "MVMRPLWSLLLWEALLPITVTGAQVLSKVGGSVLLVAARPPGFQVREAIWRSLWPSEELLATFFRGSLETLYHSRFLGRAQLHSNLSLELGPLESGDSGNFSVLMVDTRGQPWTQTLQLKVYDAVPRPVVQVFIAVERDAQPSKTCQVFLSCWAPNISEITYSWRRETTMDFGMEPHSLFTDGQVLSISLGPGDRDVAYSCIVSNPVSWDLATVTPWDSCHHEAAPGKASYKDVLLVVVPVSLLLMLVTLFSAWHWCPCSGKKKKDVHADRVGPETENPLVQDLP [Q9P0V8]", "values": [{"measurement": "percentage of EdU-negative", "setting": "hTERT-HMEC; [9]", "value": "7.18 ± 1.4", "unit": "%"}, {"measurement": "percentage of EdU-negative", "setting": "hTERT-HMEC; protein concentration 0.225 µM", "value": "4 ± 0.28", "unit": "%"}, {"measurement": "percentage of EdU-negative", "setting": "MCF7; [9]", "value": "34.5 ± 7.9", "unit": "%"}, {"measurement": "percentage of EdU-negative", "setting": "MCF7; protein concentration 0.225 µM", "value": "28.8 ± 0.29", "unit": "%"}]}
{"sequence": "MVNLAAMVWRRLLRKRWVLALVFGLSLVYFLSSTFKQEERAVRDRNLLQVHDHNQPIPWKVQFNLGNSSRPSNQCRNSIQGKHLITDELGYVCERKDLLVNGCCNVNVPSTKQYCCDGCWPNGCCSAYEYCVSCCLQPNKQLLLERFLNRAAVAFQNLFMAVEDHFELCLAKCRTSSQSVQHENTYRDPIAKYCYGESPPELFPA [Q9H741]", "values": [{"measurement": "percentage of EdU-negative", "setting": "hTERT-HMEC; [9]", "value": "5.34 ± 0.37", "unit": "%"}, {"measurement": "percentage of EdU-negative", "setting": "hTERT-HMEC; protein concentration 0.225 µM", "value": "7.52 ± 0.6", "unit": "%"}, {"measurement": "percentage of EdU-negative", "setting": "MCF7; [9]", "value": "26.4 ± 1.1", "unit": "%"}, {"measurement": "percentage of EdU-negative", "setting": "MCF7; protein concentration 0.225 µM", "value": "27 ± 2.9", "unit": "%"}]}
